Reference: patent US20260201043A1 (INSTITUT NATIONAL DE LA RECHERCHE SCIENTIFIQUE, published 2026)

Key:
[1] = target: T1, recombinant human galectin-13 (human, UniProt Q9UHV8 1-139, biotinylated for the phage ELISA; labeled with FITC for the HepG2 cell binding assay); test: non-adsorbed phage ELISA on biotinylated GAL-13
T1 construct: The background says that Gal-13 dimerizes through Cys136 and Cys138; also called GAL-13; Gal-13
T1 sequence (looked up): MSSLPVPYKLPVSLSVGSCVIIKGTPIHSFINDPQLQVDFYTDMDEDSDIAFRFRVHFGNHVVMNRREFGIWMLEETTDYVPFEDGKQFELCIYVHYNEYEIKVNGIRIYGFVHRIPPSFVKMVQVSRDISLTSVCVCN

[2] = target: T1, recombinant human galectin-13; test: cell-based or functional assay
[3] = target: T2, recombinant N-terminal domain of human GAL-9 (human, UniProt O00182 1-148); test: ELISA: sdAb immobilized at 1 µM, 5 µM GAL-9N
T2 construct: also called GAL-9N; Gal-9N
Experimental: (§1) FIGS. 19A-B show the binding of recombinant N-terminal domain of human GAL-9 (GAL-9N, FIG. 19A) and recombinant C-terminal domain of human GAL-9 (GAL-9C, FIG. 19B) to GAL-9-specific sdAbs as measured by ELISA. Briefly, sdAbs were immobilized at 1 μM for 1 h at RT, followed by blocking with PBS containing 10% (v/v) BSA and 0.05% (v/v) Tween™ 20. 5 μM of recombinant GAL-9N or GAL-9C were incubated for 1 h at RT. […] The colorimetric assay was carried out with 3,3′,5,5′-tetramethylbenzidine per the manufacturer's recommendations. Data (mean values±SD) from three independent experiments is shown. Statistical differences were assessed using Tukey's multiple comparisons test. RT=room temperature.

[4] = target: T1, recombinant human galectin-13; test: ELISA: sdAb immobilized at 1 µM, 5 µM galectin
Experimental: Briefly, Nbs were immobilized at 1 μM for 1 h at RT, followed by blocking with PBS containing 10% (v/v) BSA and 0.05% (v/v) Tween™ 20. 5 μM of galectin were incubated for 1 h at RT. […] The colorimetric assay was carried out with 3,3′,5,5′-tetramethylbenzidine per the manufacturer's recommendations. Data (mean values±SD) from one experiment is shown. Statistical differences were assessed using Dunnett's multiple comparisons test. RT=room temperature

[5] = target: T3, recombinant C-terminal domain of human GAL-9 (human, UniProt O00182 210-355); test: ELISA: sdAb immobilized at 1 µM, 5 µM GAL-9C
T3 construct: also called GAL-9C; GAL-9C (210-355)
Experimental: as §1

T2 sequence (O00182 1-148 limits assumed): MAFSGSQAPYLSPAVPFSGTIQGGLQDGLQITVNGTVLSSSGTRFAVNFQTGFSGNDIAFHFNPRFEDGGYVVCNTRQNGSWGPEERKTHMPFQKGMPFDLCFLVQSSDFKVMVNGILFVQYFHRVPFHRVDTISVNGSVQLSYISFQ
T3 sequence (O00182 210-355 limits assumed): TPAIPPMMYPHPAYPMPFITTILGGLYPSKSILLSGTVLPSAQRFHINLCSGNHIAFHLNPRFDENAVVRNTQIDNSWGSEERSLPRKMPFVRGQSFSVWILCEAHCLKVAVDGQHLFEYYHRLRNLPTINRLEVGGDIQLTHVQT

B1: G13N8 (VHH)
VHH: EVQLQASGGGFVQPGGSLRLSCAASGTTWQETKMGWFRQAPGKEREFVSAISRGPNYYPYYADSVKGRFTISRDNSKNTVYLQMNSLRAEDTATYYCADEWMGSINARGHSGYYWGQGTQVTVSS
notes: Synthetic humanized sdAb; on M13 phage in the screening ELISA, purified with His and cMyc tags otherwise; also called GAL-13 sdAb G13N8; not shown: 6xHis and cMyc tags from vector pHEN2
binding result [1]: binds

B2: G13N6 (VHH, not shown: small tags and cut ends)
VHH: EVQLQASGGGFVQPGGSLRLSCAASGRTSSLTSMGWFRQAPGKEREFVSAISFSGSMFTYYADSVKGRFTISRDNSKNTVYLQMNSLRAEDTATYYCADKWMHKPANYWGQGTQVTVSS
inhibition of galectin-13-induced apoptosis of Jurkat T cells [2]: -27%

B3: G13N1 (VHH, not shown: small tags and cut ends)
VHH: EVQLQASGGGFVQPGGSLRLSCAASGFGSNRSTMGWFRQAPGKEREFVSAISSLSSDPPYYADSVKGRFTISRDNSKNTVYLQMNSLRAEDTATYYCAPAGMRGVMEYWGQGTQVTVSS
inhibition of galectin-13-induced apoptosis of Jurkat T cells [2]: -27%

B4: G13N9 (VHH, not shown: small tags and cut ends)
VHH: EVQLQASGGGFVQPGGSLRLSCAASGRGSALTTMGWFRQAPGKEREFVSAISGDTGLYVYYADSVKGRFTISRDNSKNTVYLQMNSLRAEDTATYYCAGKWLGGRQADTRYWGQGTQVTVSS
inhibition of galectin-13-induced apoptosis of Jurkat T cells [2]: -33%

B5: G13N5 (VHH, not shown: small tags and cut ends)
VHH: EVQLQASGGGFVQPGGSLRLSCAASGYTSNEDSMGWFRQAPGKEREFVSAISRGPSFRTYYADSVKGRFTISRDNSKNTVYLQMNSLRAEDTATYYCAIRLGRLYRYGDLTPKSAYYWGQGTQVTVSS
inhibition of galectin-13-induced apoptosis of Jurkat T cells [2]: -44%

B6: G13N10 (VHH)
VHH: EVQLQASGGGFVQPGGSLRLSCAASGRTSNQTIGWFRQAPGKEREFVSAISARFDEYGYYADSVKGRFTISRDNSKNTVYLQMNSLRAEDTATYYCALGWPQKSTWRAYTAEYWGQGTQVTVSS
notes: Synthetic humanized sdAb; on M13 phage in the screening ELISA, purified with His and cMyc tags otherwise; also called Nb #10; GAL-13 sdAb G13N10; not shown: 6xHis and cMyc tags from vector pHEN2
binding result [1]: binds

B7: G9N1 (VHH)
VHH: EVQLQASGGGFVQPGGSLRLSCAASGDTSGEYSMGWFRQAPGKEREFVSAISDQGGIEIYYADSVKGRFTISRDNSKNTVYLQMNSLRAEDTATYYCAHTFYDMPDGYRQYWGQGTQVTVSS
notes: Synthetic humanized sdAb; on M13 phage in the screening ELISA, purified with His and cMyc tags and immobilized in wells otherwise; also called GAL-9-specific sdAb G9N1; not shown: 6xHis and cMyc tags from vector pHEN2
binding result [3]: binds
binding result [4]: binds

B8: G13N3 (VHH, not shown: small tags and cut ends)
VHH: EVQLQASGGGFVQPGGSLRLSCAASGRGSRWYGMGWFRQAPGKEREFVSAISAQHSTRAYYADSVKGRFTISRDNSKNTVYLQMNSLRAEDTATYYCAGYMSKMGERKWKYWGQGTQVTVSS
inhibition of galectin-13-induced apoptosis of Jurkat T cells [2]: -23.5%

B9: G9N3 (VHH)
VHH: EVQLQASGGGFVQPGGSLRLSCAASGDGSGWDIMGWFRQAPGKEREFVSAISRHDTTYSYYADSVKGRFTISRDNSKNTVYLQMNSLRAEDTATYYCATIPASWNKSYWGQGTQVTVSS
notes: Synthetic humanized sdAb; on M13 phage in the screening ELISA, purified with His and cMyc tags and immobilized in wells otherwise; also called GAL-9-specific sdAb G9N3; not shown: 6xHis and cMyc tags from vector pHEN2
binding result [5]: binds
binding result [3]: binds
binding result [4]: binds

B10: G13N4 (VHH, not shown: small tags and cut ends)
VHH: EVQLQASGGGFVQPGGSLRLSCAASGSSYAGSAMGWFRQAPGKEREFVSAISSDPDTKAYYADSVKGRFTISRDNSKNTVYLQMNSLRAEDTATYYCAISGQYPYARYWGHGTQVTVSS
inhibition of galectin-13-induced apoptosis of Jurkat T cells [2]: -31%

B11: G9N4 (VHH)
VHH: EVQLQASGGGFVQPGGSLRLSCAASGGTWRWTIMGWFRQAPGKEREFVSAISRTNSEYQYYADSVKGRFTISRDNSKNTVYLQMNSLRAEDTATYYCAEPTAVWADKGQEMQSYWGQGTQVTVSS
notes: Synthetic humanized sdAb; on M13 phage in the screening ELISA, purified with His and cMyc tags and immobilized in wells otherwise; also called GAL-9-specific sdAb G9N4; not shown: 6xHis and cMyc tags from vector pHEN2
binding result [5]: binds
binding result [3]: binds

B12: G13N2 (VHH)
VHH: EVQLQASGGGFVQPGGSLRLSCAASGSTSRSSGMGWFRQAPGKEREFVSAISYRGSGARYYADSVKGRFTISRDNSKNTVYLQMNSLRAEDTATYYCAMWQRQIQPGTRPVWKYWGQGTQVTVSS
notes: Synthetic humanized sdAb; on M13 phage in the screening ELISA, purified with His and cMyc tags otherwise; also called GAL-13 sdAb G13N2; not shown: 6xHis and cMyc tags from vector pHEN2
binding result [1]: binds
